Measurements taken from article PMC12620021 (Nucleic Acids Research, 2025).

What was measured:
[1] = target: the molecule itself; assay: crystal structure
[2] = target: T1, RelE1 toxin of Mycobacterium tuberculosis (crystallization construct, expressed as His-SUMO–RelE1) (Mycobacterium tuberculosis, UniProt O50461 1-97); assay: crystal structure; details: both partners purified
T1 sequence: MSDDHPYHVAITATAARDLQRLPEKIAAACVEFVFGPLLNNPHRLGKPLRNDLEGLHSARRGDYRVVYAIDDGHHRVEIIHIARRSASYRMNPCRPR

B1: RelB1 antitoxin of Mycobacterium tuberculosis (crystallization construct) (natural protein)
chain: MAVVPLGEVRNRLSEYVAEVELTHERITITRHGHPAAVLISADDLASIEETLEVLRTPGASEAIREGLADVAAGRFVSNDEIRNRYTAR
binding result [1]: binds
binding result [2]: binds
